Reference: the supplement of paper PMC11908140

B1: library; numbered along this chain (parent)
chain: MRKPRAAVGSGHRKQAASQEGRQKHAKNNSQAKPSACDGLARQPEEVVLQASVSSYHLFRDVAEVTAFRGSLLSWYDQEKRDLPWRRRAEDEMDLDRRAYAVWVSEVMLQQTQVATVINYYTGWMQKWPTLQDLASASLEEVNQLWAGLGYYSRGRRLQEGARKVVEELGGHMPRTAETLQQLLPGVGRYTAGAIASIAFGQATGVVDGNVARVLCRVRAIGADPSSTLVSQQLWGLAQQLVDPARPGDFNQAAMELGATVCTPQRPLCSQCPVESLCRARQRVEQEQLLASGSLSGSPDVEECAPNTGQCHLCLPPSEPWDQTLGVVNFPRKASRKPPREESSATCVLEQPGALGAQILLVQRPNSGLLAGLWEFPSVTWEPSEQLQRKALLQELQRWAGPLPATHLRHLGEVVHTFSHIKLTYQVYGLALEGQTPVTTVPPGARWLTQEEFHTAAVSTAMKKVFRVYQGQQPGTCMGSKRSQVSSPCSRKKPRMGQQVLDNFFRSHISTDAHSLNSAAQ

Variants of: B1
Experiment: 8OG:A repair function score (normalized; synonymous = 0, nonsense = -1) (normalized log-likelihood score); higher = more repair activity (WT-like)
Settings: with 8OG:A DNA repair reporter (GFP) in HEK-293 MUTYH KO cells
Method: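 Saturation mutagenesis (NNN codon scan) of the MUTYH cDNA (521-aa nuclear isoform NM_001048174.1 / NP_001041639), stably expressed under doxycycline induction in HEK-293 MUTYH knockout cells. Cells were co-transfected with an 8OG:A-bearing GFP repair reporter plus mCherry and sorted 72 h later into GFP+ and GFP− bins, three replicates per tile. The Rosace log2 enrichment (GFP+ vs GFP−) was converted per tile to a normalized function score with synonymous variants centered at 0 and nonsense variants (codons 1-471) at -1; low-abundance variants were removed.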

8OG:A repair function score: each site, then its substitutions
L40: D 0.21, A 0.139, N 0.042, W 0.123, C -0.0146, Y 0.179, G 0.0939, E 0.0138, T 0.087, F 0.134, V 0.0896, M 0.227, P 0.00594, R 0.0698, I -0.0464, K 0.127, Q 0.0733, H 0.00147, S 0.073
R2: V 0.0618, W -0.00849, T 0.0193, Q -0.0466, S 0.049, Y -0.155
K3: M -0.238, H 0.0273, W -0.0484, P 0.0268, Q 0.107, C -0.0701, A 0.108, S -0.0766, D -0.233, N 0.00918, V -0.0444, F 0.00169, Y 0.137, G 0.00287, I -0.161, L 0.0859, E -0.174, R -0.0184, T 0.144
R42: H 0.0289, K 0.0776, Y 0.0172, A 0.112, C 0.0324, W 0.0271, D 0.0284, E 0.021, G 0.0112, L -0.0705, M -0.196, N 0.0413, P -0.176, T -0.0609, S 0.0235, F 0.00894, V 0.0781, I -0.00552, Q 0.102
A36: L -0.0486, I -0.0893, E 0.00159, Q -0.0644, R -0.15, F 0.0951, M -0.076, G -0.011, D -0.0511, K -0.187, H 0.146, T 0.118, P 0.00994, V 0.0896, S -0.0113, C 0.066, W -0.0681, N -0.0203
G39: C -0.0254, I -0.0353, S 0.0658, A 0.101, F 0.045, L 0.0565, V 0.0274, Y -0.0346, H -0.44, E 0.0199, K 0.121, P 0.0274, D 0.118, N 0.241, R 0.0558, M 0.24, T 0.103
P44: I -0.165, K 0.00377, M -0.107, V -0.0774, Y -0.212, R -0.0646, H -0.0386, G -0.111, T 0.166, W -0.102, Q -0.113, C -0.247, F -0.202, E -0.0552, D -0.119, S -0.107, N -0.0778, L -0.133, A -0.142
S52: H -0.0255, P -0.0118, I -0.0155, N -0.0834, A 0.00623, M -0.00303, L 0.00142, G -0.00057, K 0.0066, C -0.0302, E -0.00064, F -0.0245, D -0.0111
V48: R 0.0418, W 0.0774, L -0.0249, K 0.119, M -0.0648, T -0.0154, D 0.0961, H 0.0666, P -0.11, C 0.0424, Y -0.141, F -0.0263, Q 0.0497, A 0.00435, G 0.0279, I 0.0882, E -0.122, S -0.0148, N 0.0431
A41: V -0.0754, G -0.0656, F 0.0355, W -0.0976, Y -0.107, D -0.0561, P 0.00904, K -0.0537, T 0.0139, M -0.0227, R 0.0859, H -0.0884, S -0.048, Q 0.168, L -0.0575, I 0.0909, N 0.0813, C -0.0569, E -0.0689
A6: M -0.168, G 0.0165, F 0.0517, C -0.117, T 0.0379, I -0.177, L 0.01, E 0.137, K -0.0201, N -0.0265, Q 0.0112, R -0.0747, H -0.0145, V 0.0405, S -0.117, D -0.15, P -0.0227, Y -0.0552
E46: H -0.0875, L -0.211, N -0.0764, M -0.119, R 0.0933, V 0.0528, C 0.0656, D 0.0496, I 0.0225, Q 0.0688, G -0.0545, Y -0.0657, S -0.0996, A 0.0651, P 0.0495, T 0.134, W -0.0064, K -0.0383, F 0.0911
Q43: L 0.0948, P 0.054, T 0.0245, E 0.0951, A 0.0603, K 0.0479, S -0.0281, W -0.0384, C 0.138, Y -0.0469, G -0.0204, M 0.0733, V -0.0464, H 0.0802, I 0.0991, D 0.0131, R 0.0791, F 0.0374, N -0.0614
Q50: F -0.0563, I -0.135, W 0.014, L -0.0733, P 0.126, S 0.0939, Y -0.0626, G -0.0798, M -0.0659, V -0.0513, E 0.0122, C 0.0151, A -0.00978, T -0.147, R 0.0284, K 0.0673, D 0.088, N 0.00105, H -0.0435
V47: N 0.0108, Y -0.0242, I 0.0706, R -0.00231, P -0.0988, D -0.0274, E -0.116, Q -0.0401, S -0.0698, A 0.101, W 0.0191, G -0.0668, T -0.0192, K 0.00868, L -0.135, M -0.0812, C 0.0227, F 0.0442, H 0.0522
E45: G 0.13, D 0.155, L -0.0561, H 0.0965, M 0.00456, S -0.0822, T 0.0748, A -0.024, R 0.0409, Q -0.0405, N 0.01, I -0.0125, F -0.059, P -0.0802, V -0.122, K -0.0451, C -0.0211, Y 0.0286
L49: M 0.233, E 0.0582, R 0.00838, Q -0.00358, F -0.0825, C 0.125, V -0.0831, H 0.0564, T 0.0602, P 0.109, Y -0.0309, D 0.0266, W -0.109, G -0.027, K -0.236, N 0.241, A 0.0219, I -0.0224, S 0.027
A51: Y 0.00468, W 0.101, F -0.116, E 0.0222, D 0.029, Q 0.214, G -0.0113, C 0.0297, L -0.036, S 0.0659, K 0.124, P 0.142, H 0.0322, I -0.041, V 0.0738, R 0.00957, N -0.00641, M -0.607
P34: T -0.0245, S 0.0874, M 0.176, A -0.039, C 0.0156, V -0.0896, Q 0.146, H 0.142, I -0.0342, G -0.0669, D 0.128, L 0.131, R 0.0769, K 0.166, E 0.0965, W 0.133, N 0.0767
